EC50 data for two molecules are collected here from patent US20210371527A1 (published 2021).

The target in experiment [1] is T1, human CD4 on HPB-ALL cells (UniProt P01730 26-458). As to the kind of experiment: flow cytometry. On the technique in general: A flow cytometer gives signals particle by particle.
In experiment [2] the target is T1, human CD4 on HPB-ALL cells. As to the kind of experiment: flow cytometry. The source holds these as a separate data set.

Where two headings read alike, the source gives them in different places.

B1: deferoxamine conjugated humanized IAB41-1 minibody (other)
chain: EIVLTQSPATLSLSPGERATLSCSARSSVSYLYWYQQKPGQAPRLLIYDTSNLASGIPDRFSGSGSGTDFTLTISRLEPEDAAVYYCQQWSDYPLTFGGGTKLEIKGSTSGGGSGGGSGGGGSSQVQLVQSGAEVKKPGASVKVSCKASGYSFANYWMHWVRQAPGQRLEWIGALYPGNVDTTYNQKFQGRVTITRDTSASTAYMELSSLRSEDTAVYYCTRMGTTLEAPLDYWGQGTLVTVSSEPKSSDKTHTCPPCPPCGGGSSGGGSGGQPREPQVYTLPPSREEMTKNQVSLTCLVKGFYPSDIAVEWESNGQPENNYKTTPPVLDSDGSFFLYSKLTVDKSRWQQGNVFSCSVMHEALHNHYTQKSLSLSPG
modifications: deferoxamine (Df) chelator conjugated; sites of conjugation not stated
One may read the EC50 as the concentration giving half of the maximal effect. For the molecule B1, the EC50 in experiment [1] is 3.05 nM.

B2: humanized IAB41-1 minibody (other)
chain: EIVLTQSPATLSLSPGERATLSCSARSSVSYLYWYQQKPGQAPRLLIYDTSNLASGIPDRFSGSGSGTDFTLTISRLEPEDAAVYYCQQWSDYPLTFGGGTKLEIKGSTSGGGSGGGSGGGGSSQVQLVQSGAEVKKPGASVKVSCKASGYSFANYWMHWVRQAPGQRLEWIGALYPGNVDTTYNQKFQGRVTITRDTSASTAYMELSSLRSEDTAVYYCTRMGTTLEAPLDYWGQGTLVTVSSEPKSSDKTHTCPPCPPCGGGSSGGGSGGQPREPQVYTLPPSREEMTKNQVSLTCLVKGFYPSDIAVEWESNGQPENNYKTTPPVLDSDGSFFLYSKLTVDKSRWQQGNVFSCSVMHEALHNHYTQKSLSLSPG
Molecule B2 had an EC50 in experiment [2] of 1.77 nM.
